Experimental data from patent US20180117084A1.

Target: full-length CTLA-4 (flCTLA-4) secreted by human dendritic cells on microvesicles/exosomes (human) (UniProt P16410)
Assay: cell-based or functional assay

Chain of UniProt P16410 (P16410 36-223 limits assumed): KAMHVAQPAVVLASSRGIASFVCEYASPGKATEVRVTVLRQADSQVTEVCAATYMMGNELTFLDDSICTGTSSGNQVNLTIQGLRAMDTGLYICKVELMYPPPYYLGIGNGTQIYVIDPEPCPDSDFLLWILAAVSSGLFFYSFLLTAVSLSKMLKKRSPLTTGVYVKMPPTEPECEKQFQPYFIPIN

**Q.** For “αHuman CTLA-4 clone BNI3 (cat #: 555851, BD Pharmingen) (antibody)”, which percentage of CFSE+ recipient DC after pre-clearance of supernatant with αCTLA-4 beads (20 minutes at 4 C, 0.1% sodium azide) is on record?
**A.** 45%

**Q.** And the uptake of CFSE-labeled exosomes by unlabeled DC after incubation of supernatant with αCTLA-4 coated beads, antibody at 5 µg/ml?
**A.** 26%

**Q.** And the uptake of CFSE-labeled exosomes by unlabeled DC after incubation of supernatant with αCTLA-4 coated beads, antibody at 50 µg/ml?
**A.** 35%
